Measurements from publication PMC2040504.

Molecular target: CXCR4 (human (endogenous in CEM)) (UniProt P61073)
Experiment: radioligand binding; competition: 0.25 nM 125I-CXCL12α and a range of concentrations of unlabelled CXCL12 (α, γ or γ-m1) on CEM cells (10^7 cells/ml), 100 µl PBS, 1 h, 4°C; cell-associated radioactivity counted

Chain of UniProt P61073 (P61073 whole entry): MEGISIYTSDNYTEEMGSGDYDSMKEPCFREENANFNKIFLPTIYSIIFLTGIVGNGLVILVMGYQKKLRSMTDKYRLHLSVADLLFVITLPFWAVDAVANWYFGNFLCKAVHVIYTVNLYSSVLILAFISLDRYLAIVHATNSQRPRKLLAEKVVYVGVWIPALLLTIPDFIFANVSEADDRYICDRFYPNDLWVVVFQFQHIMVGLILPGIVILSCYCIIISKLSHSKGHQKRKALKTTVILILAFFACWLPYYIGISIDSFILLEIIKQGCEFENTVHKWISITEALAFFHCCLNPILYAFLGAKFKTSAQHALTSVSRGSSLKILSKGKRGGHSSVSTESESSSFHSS

Substance: CXCL12γ (ligand)
- IC50: 0.35 µM
